B1: GFP–FUT11 (POFUT4) (Homo sapiens) (protein)
chain: AGGEAEWAEPWDGAVFRPPSALGAVGVTRSSGTPRPGREEAGDLPVLLWWSPGLFPHFPGDSERIECARGACVASRNRRALRDSRTRALLFYGTDFRASAAPLPRLAHQSWALLHEESPLNNFLLSHGPGIRLFNLTSTFSRHSDYPLSLQWLPGTAYLRRPVPPPMERAEWRRRGYAPLLYLQSHCDVPADRDRYVRELMRHIPVDSYGKCLQNRELPTARLQDTATATTEDPELLAFLSRYKFHLALENAICNDYMTEKLWRPMHLGAVPVYRGSPSVRDWMPNNHSVILIDDFESPQKLAEFIDFLDKNDEEYMKYLAYKQPGGITNQFLLDSLKHREWGVNDPLLPNYLNGFECFVCDYELARLDAEKAHAASPGDSPVFEPHIAQPSHMDCPVPTPGFGNVEEIPENDSWKEMWLQDYWQGLDQGEALTAMIHNNETEQTKFWDYLHEIFMKRQHL
B2: Multimerin-1 (MMRN1): FX KO (protein)
parent chain: MKGARLFVLLSSLWSGGIGLNNSKHSWTIPEDGNSQKTMPSASVPPNKIQSLQILPTTRVMSAEIATTPEARTSEDSLLKSTLPPSETSAPAEGVRNQTLTSTEKAEGVVKLQNLTLPTNASIKFNPGAESVVLSNSTLKFLQSFARKSNEQATSLNTVGGTGGIGGVGGTGGVGNRAPRETYLSRGDSSSSQRTDYQKSNFETTRGKNWCAYVHTRLSPTVILDNQVTYVPGGKGPCGWTGGSCPQRSQKISNPVYRMQHKIVTSLDWRCCPGYSGPKCQLRAQEQQSLIHTNQAESHTAVGRGVAEQQQQQGCGDPEVMQKMTDQVNYQAMKLTLLQKKIDNISLTVNDVRNTYSSLEGKVSEDKSREFQSLLKGLKSKSINVLIRDIVREQFKIFQNDMQETVAQLFKTVSSLSEDLESTRQIIQKVNESVVSIAAQQKFVLVQENRPTLTDIVELRNHIVNVRQEMTLTCEKPIKELEVKQTHLEGALEQEHSRSILYYESLNKTLSKLKEVHEQLLSTEQVSDQKNAPAAESVSNNVTEYMSTLHENIKKQSLMMLQMFEDLHIQESKINNLTVSLEMEKESLRGECEDMLSKCRNDFKFQLKDTEENLHVLNQTLAEVLFPMDNKMDKMSEQLNDLTYDMEILQPLLEQGASLRQTMTYEQPKEAIVIRKKIENLTSAVNSLNFIIKELTKRHNLLRNEVQGRDDALERRINEYALEMEDGLNKTMTIINNAIDFIQDNYALKETLSTIKDNSEIHHKCTSDMETILTFIPQFHRLNDSIQTLVNDNQRYNFVLQVAKTLAGIPRDEKLNQSNFQKMYQMFNETTSQVRKYQQNMSHLEEKLLLTTKISKNFETRLQDIESKVTQTLIPYYISVKKGSVVTNERDQALQLQVLNSRFKALEAKSIHLSINFFSLNKTLHEVLTMCHNASTSVSELNATIPKWIKHSLPDIQLLQKGLTEFVEPIIQIKTQAALSNLTCCIDRSLPGSLANVVKSQKQVKSLPKKINALKKPTVNLTTVLIGRTQRNTDNIIYPEEYSSCSRHPCQNGGTCINGRTSFTCACRHPFTGDNCTIKLVEENALAPDFSKGSYRYAPMVAFFASHTYGMTIPGPILFNNLDVNYGASYTPRTGKFRIPYLGVYVFKYTIESFSAHISGFLVVDGIDKLAFESENINSEIHCDRVLTGDALLELNYGQEVWLRLAKGTIPAKFPPVTTFSGYLLYRT
B3: Multimerin-1 (MMRN1): FUT10/11 DKO (protein)
parent chain: B2 parent chain
B4: Multimerin-1 (MMRN1): T216A/T265A (protein)
parent chain: B2 parent chain
B5: Multimerin-1 (MMRN1): T216A (protein)
parent chain: B2 parent chain
B6: Multimerin-1 (MMRN1): T265A (protein)
parent chain: B2 parent chain
B7: Multimerin-1 (MMRN1): T1055A (protein)
parent chain: B2 parent chain

Legend:
[1] = target: T1, GFP–FUT8 (Homo sapiens, UniProt Q9BYC5); experiment: nano LC-MS/MS of N-glycan fucosylation on EMI; type: biochemical; settings: donor; 100 μM with 0.5 μM non-fucosylated MMRN1 N-terminal EMI, 50 mM HEPES pH 7, 37 °C, 30 min; positive control
T1 sequence (Q9BYC5 31-575 limits assumed): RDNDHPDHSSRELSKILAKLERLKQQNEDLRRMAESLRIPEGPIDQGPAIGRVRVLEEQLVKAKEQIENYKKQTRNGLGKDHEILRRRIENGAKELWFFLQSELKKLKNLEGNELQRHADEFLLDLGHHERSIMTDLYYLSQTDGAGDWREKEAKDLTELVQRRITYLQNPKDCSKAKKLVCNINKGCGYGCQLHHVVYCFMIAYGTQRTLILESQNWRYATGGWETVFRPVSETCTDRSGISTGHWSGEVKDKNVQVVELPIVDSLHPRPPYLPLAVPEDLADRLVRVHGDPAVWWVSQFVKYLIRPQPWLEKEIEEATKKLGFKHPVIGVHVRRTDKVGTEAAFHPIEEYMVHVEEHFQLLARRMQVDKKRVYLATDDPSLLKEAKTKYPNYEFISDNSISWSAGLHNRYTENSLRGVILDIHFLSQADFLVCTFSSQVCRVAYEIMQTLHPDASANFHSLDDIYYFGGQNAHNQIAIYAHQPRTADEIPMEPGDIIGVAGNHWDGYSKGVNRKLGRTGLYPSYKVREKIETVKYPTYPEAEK

[2] = target: T2, GFP–FUT10 (POFUT3) (Homo sapiens, UniProt Q6P4F1); experiment: nano LC-MS/MS of O-fucosylated EMI peptides; type: biochemical; settings: donor; 100 μM with 0.5 μM non-fucosylated MMRN1 N-terminal EMI, 50 mM HEPES pH 7, 37 °C
T2 sequence (Q6P4F1 34-479 limits assumed): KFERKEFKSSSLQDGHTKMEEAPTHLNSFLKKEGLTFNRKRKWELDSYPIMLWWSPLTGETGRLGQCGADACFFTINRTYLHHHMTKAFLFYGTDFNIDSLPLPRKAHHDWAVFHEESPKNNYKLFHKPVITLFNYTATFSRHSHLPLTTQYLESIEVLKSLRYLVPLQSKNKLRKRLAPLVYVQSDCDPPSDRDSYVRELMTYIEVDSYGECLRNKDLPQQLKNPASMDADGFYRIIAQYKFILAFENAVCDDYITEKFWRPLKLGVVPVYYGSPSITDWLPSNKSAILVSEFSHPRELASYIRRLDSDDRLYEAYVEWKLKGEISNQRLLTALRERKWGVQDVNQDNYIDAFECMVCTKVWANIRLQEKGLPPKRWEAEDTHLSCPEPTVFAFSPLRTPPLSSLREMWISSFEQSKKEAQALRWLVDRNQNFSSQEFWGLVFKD

[3] = target: human MMRN1 N-terminal EMI-Myc-His6 (first 290 amino acids of Multimerin-1, wild type) (human) (UniProt Q13201)
[4] = substrate: C[C@@H]1O[C@H](OP(=O)(O)OP(=O)(O)OC[C@H]2O[C@@H](n3cnc4c(=O)[nH]c(N)nc43)[C@H](O)[C@@H]2O)[C@@H](O)[C@H](O)[C@@H]1O; experiment: nano LC-MS/MS glycopeptide quantification, Michaelis-Menten fit; type: biochemical, Homo sapiens; settings: donor, 20 μM non-fucosylated MMRN1 N-terminal EMI, 0.3 mM MnCl2, 50 mM HEPES pH 7, 37 °C, 15 min, same value for T216 and T265 sites
[5] = anti-Myc western blot of medium, normalised to IgG
[6] = western blot of cell lysates; settings: glycan lost; control: wild type full-length MMRN1
[7] = glycan lost, control: wild type full-length MMRN1

Molecule	expression_or_secretion [6]	expression_or_secretion, other: % reduction vs WT [5, 7]	further results
C[C@@H]1O[C@H](OP(=O)(O)OP(=O)(O)OC[C@H]2O[C@@H](n3cnc4c(=O)[nH]c(N)nc43)[C@H](O)[C@@H]2O)[C@@H](O)[C@H](O)[C@@H]1O [GDP-fucose]	–	–	nano LC-MS/MS of N-glycan fucosylation on EMI [1]: GFP–FUT8 was used as a positive control, and it robustly added fucose to N-glycans; nano LC-MS/MS of O-fucosylated EMI peptides [2]: Both GFP–FUT10 and GFP–FUT11 can independently add fucose to EMI substrates
GFP–FUT11 (human FUT11 lacking the transmembrane domain, from pGEn2-GFP-hFUT11) (from UniProt Q495W5 1-492) (enzyme)	–	–	Km for non-fucosylated N-terminal EMI at the T216 site; O-fucosylation kinetics by LC-MS/MS, Michaelis–Menten fit, 50 nM enzyme, 100 μM GDP-fucose, 0.3 mM MnCl2, 37 °C, 15 min [3]: 6.74 µM
B1	–	–	Km [4]: 5 µM
B2	–	–	expression_or_secretion, other: % reduction vs WT ([5]; glycan lost, control: N-terminal EMI in WT HEK293T cells): decreases
B3	–	–	expression_or_secretion, other: % reduction vs WT ([5]; glycan changed form, control: N-terminal EMI in WT HEK293T cells): decreases
B4	no change	decreases	–
B5	no change	decreases	–
B6	no change	no change	–
B7	no change	abolishes	–
